{"source": "patent US7229788B1", "about": "“Protease susceptibility II” (The University of Sydney, priority 1998, dated 2007)", "molecules": {"B1": {"name": "GST-SHEL: fusion of glutathione S-transferase (GST) with SHEL (protein)", "chain": "GGVPGAIPGGVPGGVFYPGAGLGALGGGALGPGGKPLKPVPGGLAGAGLGAGLGAFPAVTFPGALVPGGVADAAAAYKAAKAGAGLGGVPGVGGLGVSAGAVVPQPGAGVKPGKVPGVGLPGVYPGGVLPGARFPGVGVLPGVPTGAGVKPKAPGVGGAFAGIPGVGPFGGPQPGVPLGYPIKAPKLPGGYGLPYTTGKLPYGYGPGGVAGAAGKAGYPTGTGVGPQAAAAAAAKAAAKFGAGAAGVLPGVGGAGVPGVPGAIPGIGGIAGVGTPAAAAAAAAAAKAAKYGAAAGLVPGGPGFGPGVVGVPGAGVPGVGVPGAGIPVVPGAGIPGAAVPGVVSPEAAAKAAAKAAKYGARPGVGVGGIPTYGVGAGGFPGFGVGVGGIPGVAGVPSVGGVPGVGGVPGVGISPEAQAAAAAKAAKYGVGTPAAAAAKAAAKAAQFGLVPGVGVAPGVGVAPGVGVAPGVGLAPGVGVAPGVGVAPGVGVAPGIGPGGVAAAAKSAAKVAAKAQLRAAAGLGAGIPGLGVGVGVPGLGVGAGVPGLGVGAGVPGFGAGADEGVRRSLSPELREGDPSSSQHLPSTPSSPRVPGALAAAKAAKYGAAVPGVLGGLGALGGVGIPGGVVGAGPAAAAAAAKAAAKAAQFGLVGAAGLGGLGVGGLGVPGVGGLGGIPPAAAAKAAKYGAAGLGGVLGGAGQFPLGGVAARPGFGLSPIFPGGACLGKACGRKRK", "modifications": "left off: a dimerising Fc or GST"}, "B2": {"name": "SHEL: recombinant human tropoelastin splice form, amino acid sequence SEQ ID NO:4, obtained by the method of WO94/14958 (protein, listed as Homo sapiens)", "chain": "B1 chain"}, "B3": {"name": "SHELδ26A: derived from SHEL by removing sequence corresponding to exon 26A; SEQ ID NO:5; reduced tropoelastin derivative (protein, listed as Homo sapiens)", "chain": "GGVPGAIPGGVPGGVFYPGAGLGALGGGALGPGGKPLKPVPGGLAGAGLGAGLGAFPAVTFPGALVPGGVADAAAAYKAAKAGAGLGGVPGVGGLGVSAGAVVPQPGAGVKPGKVPGVGLPGVYPGGVLPGARFPGVGVLPGVPTGAGVKPKAPGVGGAFAGIPGVGPFGGPQPGVPLGYPIKAPKLPGGYGLPYTTGKLPYGYGPGGVAGAAGKAGYPTGTGVGPQAAAAAAAKAAAKFGAGAAGVLPGVGGAGVPGVPGAIPGIGGIAGVGTPAAAAAAAAAAKAAKYGAAAGLVPGGPGFGPGVVGVPGAGVPGVGVPGAGIPVVPGAGIPGAAVPGVVSPEAAAKAAAKAAKYGARPGVGVGGIPTYGVGAGGFPGFGVGVGGIPGVAGVPSVGGVPGVGGVPGVGISPEAQAAAAAKAAKYGVGTPAAAAAKAAAKAAQFGLVPGVGVAPGVGVAPGVGVAPGVGLAPGVGVAPGVGVAPGVGVAPGIGPGGVAAAAKSAAKVAAKAQLRAAAGLGAGIPGLGVGVGVPGLGVGAGVPGLGVGAGVPGFGAVPGALAAAKAAKYGAAVPGVLGGLGALGGVGIPGGVVGAGPAAAAAAAKAAAKAAQFGLVGAAGLGGLGVGGLGVPGVGGLGGIPPAAAAKAAKYGAAGLGGVLGGAGQFPLGGVAARPGFGLSPIFPGGACLGKACGRKRK"}}, "format_in_all_cases": "biochemical", "key": {"human thrombin": {"biological_target": "T1, human thrombin (Homo sapiens, UniProt P00734)", "T1 construct": "purchased Sigma", "assay": "Thrombin digestion of SHEL, SDS-PAGE", "settings": "for protection from degradation by thrombin in the coacervated state: coacervated at 37° C., 150 mM NaCl", "method": "(§1) A range of enzyme concentrations was originally used to determine the optimal amount for subsequent experiments. Thrombin (0.01–1U), human plasma kallikrein (3×10^−4 to 3×10^−3U), human plasmin (7×10^−5 to 4×10^−7U), bovine trypsin (5×10^−4 to 4×10^−3U), and human leukocyte elastase (1.6×10^−4 to 3.2×10^−3U) were added to 10 μg SHEL or SHELδ26A in 50 mM sodium phosphate buffer pH 7.8 in a total volume of 20 μl. All reactions were performed at 37° C. for one hour. Gelatinase A and B were activated using 0.8 mM APMA at 37° C. for 30 minutes (gelatinase A) or 37° C. for 45 minutes (gelatinase B). Gelatinase A (4×10^−3−4×10^−2) and gelatinase B (2×10^−5−1×10^−4) was added to […] SHEL or SHELd26A in a total volume of […]. Gelatinase B reactions were performed in the presence of 0.75 mM APMA. The degradation profile was analysed by 8, 10 or 12% SDS-PAGE.\n(§2) Both SHEL and SHELδ26A were used. Each reaction was analysed by 10% SDS-PAGE.\n(§3) Extent of proteolysis was monitored by SDS-PAGE.\nCleavage of GST-SHEL bound to glutathione agarose was performed by washing and resuspending beads in 1× thrombin cleavage buffer (50 mM Tris-HCl pH8.0, 150 mM NaCl, 2.5 mM CaCl2) and adding human thrombin (Sigma) from 0.1 to 1% (w/v) thrombin:fusion protein at 25° C. for one hour (Smith and Johnston 1988). Soluble bacterial lysates used as substrate were incubated similarly with 1× thrombin cleavage buffer, added from a 10× stock. GST (26 kDa) was evident on beads by SDS-PAGE but SHEL could not be identified in the supernatant in numerous experiments. To determine whether thrombin was degrading SHEL, the entire cell lysate was subject to cleavage with increasing concentrations of thrombin. […] GST was clearly present. However, with 0.01U thrombin a band at approximately 64 kDa could be discerned which may represent SHEL although this was not nearly as intense as the GST band."}, "human plasma kallikrein": {"biological_target": "T2, human plasma kallikrein (Homo sapiens, UniProt P03952)", "T2 construct": "purchased Sigma", "T2 sequence (P03952 20-638)": "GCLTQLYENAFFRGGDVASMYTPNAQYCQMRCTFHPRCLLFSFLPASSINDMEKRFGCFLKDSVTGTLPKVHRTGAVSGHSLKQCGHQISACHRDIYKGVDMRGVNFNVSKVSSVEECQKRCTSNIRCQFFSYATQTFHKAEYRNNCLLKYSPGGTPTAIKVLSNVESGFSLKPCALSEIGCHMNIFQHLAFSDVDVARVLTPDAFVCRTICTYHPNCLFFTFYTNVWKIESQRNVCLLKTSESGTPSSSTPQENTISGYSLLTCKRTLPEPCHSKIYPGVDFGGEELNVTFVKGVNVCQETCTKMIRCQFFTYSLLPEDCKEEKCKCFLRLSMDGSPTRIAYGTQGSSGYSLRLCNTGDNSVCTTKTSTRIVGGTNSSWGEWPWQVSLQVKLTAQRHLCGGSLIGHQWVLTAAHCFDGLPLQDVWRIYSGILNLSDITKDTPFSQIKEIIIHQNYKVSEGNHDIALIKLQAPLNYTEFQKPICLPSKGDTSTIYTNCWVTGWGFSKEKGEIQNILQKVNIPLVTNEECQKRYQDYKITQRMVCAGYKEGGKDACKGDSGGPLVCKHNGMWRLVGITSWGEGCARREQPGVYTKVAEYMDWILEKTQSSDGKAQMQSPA", "assay": "Kallikrein digestion of SHEL, SDS-PAGE", "settings": "for degradation by human plasma kallikrein: 50 mM sodium phosphate pH 7.8, 37° C.; for protection from degradation by kallikrein in the coacervated state: coacervated at 37° C., 150 mM NaCl", "method": "as §1, §2, §3"}, "bovine trypsin": {"biological_target": "T3, bovine trypsin (Bos taurus, UniProt P00760)", "T3 construct": "purchased Boehringer-Mannheim", "T3 sequence (P00760 24-246)": "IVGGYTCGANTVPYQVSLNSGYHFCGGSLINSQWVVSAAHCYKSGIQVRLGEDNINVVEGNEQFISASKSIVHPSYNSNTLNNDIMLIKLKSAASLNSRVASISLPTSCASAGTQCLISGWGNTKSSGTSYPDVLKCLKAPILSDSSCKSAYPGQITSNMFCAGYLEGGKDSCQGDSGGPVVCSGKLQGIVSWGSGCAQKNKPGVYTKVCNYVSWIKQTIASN", "assay": "Trypsin digestion of SHEL, SDS-PAGE", "method": "as §1, §2, §3"}, "human plasmin": {"biological_target": "T4, human plasmin (Homo sapiens, UniProt P00747)", "T4 construct": "purchased Sigma", "T4 sequence (P00747 97-810)": "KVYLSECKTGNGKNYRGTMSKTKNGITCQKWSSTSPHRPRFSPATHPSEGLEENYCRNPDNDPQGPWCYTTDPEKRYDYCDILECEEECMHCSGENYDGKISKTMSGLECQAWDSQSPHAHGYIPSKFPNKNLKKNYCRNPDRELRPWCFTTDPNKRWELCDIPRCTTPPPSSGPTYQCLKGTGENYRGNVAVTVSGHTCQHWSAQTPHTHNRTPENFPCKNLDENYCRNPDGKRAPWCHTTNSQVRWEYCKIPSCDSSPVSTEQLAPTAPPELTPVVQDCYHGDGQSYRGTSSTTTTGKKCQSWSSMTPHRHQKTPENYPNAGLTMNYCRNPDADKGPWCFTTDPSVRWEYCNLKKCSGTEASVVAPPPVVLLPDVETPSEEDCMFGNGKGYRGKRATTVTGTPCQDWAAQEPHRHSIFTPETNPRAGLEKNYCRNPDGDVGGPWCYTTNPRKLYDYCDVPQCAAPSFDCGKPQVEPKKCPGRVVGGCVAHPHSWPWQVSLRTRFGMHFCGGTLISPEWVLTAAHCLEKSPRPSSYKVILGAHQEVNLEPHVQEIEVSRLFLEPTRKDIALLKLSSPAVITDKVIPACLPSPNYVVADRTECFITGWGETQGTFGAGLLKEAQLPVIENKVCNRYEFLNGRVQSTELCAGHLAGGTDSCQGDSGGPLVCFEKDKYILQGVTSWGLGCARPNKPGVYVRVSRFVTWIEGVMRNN", "assay": "Plasmin digestion of SHEL, SDS-PAGE", "settings": "for protection from degradation by plasmin in the coacervated state: coacervated at 37° C., 150 mM NaCl", "method": "as §1, §2, §3"}, "[1]": {"biological_target": "T5, human leukocyte elastase (HLE) (Homo sapiens, UniProt P08246)", "T5 construct": "purchased Sigma", "T5 sequence (P08246 30-267)": "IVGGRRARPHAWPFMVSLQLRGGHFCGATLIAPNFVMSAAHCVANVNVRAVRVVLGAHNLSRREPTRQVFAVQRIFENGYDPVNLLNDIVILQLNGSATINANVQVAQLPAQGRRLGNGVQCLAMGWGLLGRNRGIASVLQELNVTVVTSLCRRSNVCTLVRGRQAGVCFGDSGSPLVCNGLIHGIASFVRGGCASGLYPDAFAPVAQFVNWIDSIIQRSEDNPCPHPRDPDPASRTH", "assay": "HLE digestion of SHEL, SDS-PAGE", "method": "as §1, §2, §3"}, "[2]": {"biological_target": "T6, Gelatinase A (72 kDa gelatinase) (Homo sapiens, UniProt P08253)", "T6 construct": "purchased Boehringer Mannheim Roche Diagnostics", "T6 sequence (P08253 110-660)": "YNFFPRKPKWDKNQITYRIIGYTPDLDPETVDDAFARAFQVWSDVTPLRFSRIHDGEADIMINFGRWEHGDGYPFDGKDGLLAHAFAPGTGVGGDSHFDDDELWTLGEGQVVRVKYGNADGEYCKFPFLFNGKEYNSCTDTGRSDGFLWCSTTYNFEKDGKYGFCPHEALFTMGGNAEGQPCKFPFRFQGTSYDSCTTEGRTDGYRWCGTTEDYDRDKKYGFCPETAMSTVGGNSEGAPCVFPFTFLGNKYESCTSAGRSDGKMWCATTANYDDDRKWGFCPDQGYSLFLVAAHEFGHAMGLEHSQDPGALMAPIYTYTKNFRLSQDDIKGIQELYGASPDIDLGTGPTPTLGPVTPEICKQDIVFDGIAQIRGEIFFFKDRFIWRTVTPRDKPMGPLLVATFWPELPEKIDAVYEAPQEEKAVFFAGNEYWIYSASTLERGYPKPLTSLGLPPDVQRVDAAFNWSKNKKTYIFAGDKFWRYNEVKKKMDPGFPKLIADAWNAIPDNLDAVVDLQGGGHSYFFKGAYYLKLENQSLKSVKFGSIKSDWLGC", "assay": "Gelatinase A digestion of SHEL", "settings": "SDS-PAGE and zymogram analysis", "method": "as §1"}, "[3]": {"biological_target": "T7, gelatinase B (92 kDa gelatinase) (Homo sapiens, UniProt P14780)", "T7 construct": "purchased Boehringer Mannheim Roche Diagnostics", "T7 sequence (P14780 107-707 limits assumed, species assumed)": "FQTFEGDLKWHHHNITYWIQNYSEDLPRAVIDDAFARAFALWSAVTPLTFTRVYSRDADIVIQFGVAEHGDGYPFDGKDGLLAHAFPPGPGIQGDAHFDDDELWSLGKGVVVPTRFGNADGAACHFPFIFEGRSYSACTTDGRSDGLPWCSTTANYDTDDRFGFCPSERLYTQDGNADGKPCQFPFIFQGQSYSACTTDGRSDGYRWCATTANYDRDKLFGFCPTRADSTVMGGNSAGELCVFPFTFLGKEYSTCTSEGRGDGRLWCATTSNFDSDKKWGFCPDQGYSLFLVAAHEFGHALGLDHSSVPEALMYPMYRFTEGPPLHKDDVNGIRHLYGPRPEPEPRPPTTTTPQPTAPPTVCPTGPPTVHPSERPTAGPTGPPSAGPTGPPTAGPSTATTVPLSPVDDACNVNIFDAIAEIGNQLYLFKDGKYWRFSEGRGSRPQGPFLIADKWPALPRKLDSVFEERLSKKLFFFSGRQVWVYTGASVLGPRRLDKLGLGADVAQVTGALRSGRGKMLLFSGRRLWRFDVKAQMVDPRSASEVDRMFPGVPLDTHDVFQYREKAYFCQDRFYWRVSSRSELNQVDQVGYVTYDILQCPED", "assay": "Gelatinase B digestion of SHEL", "settings": "SDS-PAGE and zymogram analysis", "method": "as §1"}, "protease": {"tested_on": "protease", "assay": "Protease resistance of SHELδ26A compared with SHEL", "method": "as §1"}, "[4]": {"settings": "50 mM sodium phosphate pH 7.8, 37° C."}, "[5]": {"settings": "coacervated at 37° C., 150 mM NaCl"}}, "data": [{"molecule": "B1", "values": [{"measurement": "cleavage of fusion protein by thrombin", "setting": "human thrombin; thrombin cleavage buffer, 25° C., one hour", "result": "extensively and in a reproducible manner"}]}, {"molecule": "B2", "values": [{"measurement": "degradation by thrombin", "setting": "human thrombin; 50 mM sodium phosphate pH 7.8, 37° C., one hour", "result": "easily degraded"}, {"measurement": "protection from degradation by thrombin in the coacervated state", "setting": "human thrombin", "result": "significantly protected from degradation"}, {"measurement": "degradation by human plasma kallikrein", "setting": "human plasma kallikrein", "result": "specific and reproducible degradation"}, {"measurement": "protection from degradation by kallikrein in the coacervated state", "setting": "human plasma kallikrein", "result": "significantly protected from degradation"}, {"measurement": "degradation by bovine trypsin", "setting": "bovine trypsin; [4]", "result": "complete degradation with prolonged treatment"}, {"measurement": "protection from degradation by trypsin in the coacervated state", "setting": "bovine trypsin; [5]", "result": "some inhibition"}, {"measurement": "degradation by human plasmin", "setting": "human plasmin; [4]", "result": "at high concentration extensive degradation occurred"}, {"measurement": "protection from degradation by plasmin in the coacervated state", "setting": "human plasmin", "result": "not by plasmin"}, {"measurement": "degradation by human leukocyte elastase", "setting": "[1]; [4]", "result": "extensive degradation if left for extended period"}, {"measurement": "protection from degradation by HLE in the coacervated state", "setting": "[1]; [5]", "result": "some inhibition"}, {"measurement": "digestion by gelatinase A", "setting": "[2]", "result": "digested"}, {"measurement": "digestion by gelatinase B", "setting": "[3]", "result": "digested"}]}, {"molecule": "B3", "values": [{"measurement": "protection from degradation by thrombin in the coacervated state", "setting": "human thrombin", "result": "significant protection from proteolysis"}, {"measurement": "degradation by human plasma kallikrein", "setting": "human plasma kallikrein", "result": "highly specific and limited proteolysis"}, {"measurement": "protection from degradation by kallikrein in the coacervated state", "setting": "human plasma kallikrein", "result": "significant protection from proteolysis"}, {"measurement": "protection from degradation by plasmin in the coacervated state", "setting": "human plasmin", "result": "No protection was seen"}, {"measurement": "protease resistance relative to SHEL", "setting": "protease", "result": "higher protease resistance than SHEL"}]}]}
